{"source": "patent US20160083465A1", "about": "(AVEO PHARMACEUTICALS, published 2016)", "assay_in_all_cases": "SPR Biacore T100, 37 C, antibody captured by anti-mouse IgG, antigen in solution", "key": {"[1]": {"biological_target": "T1, 6xHis tagged recombinant human GDF15 (His-rhGDF15) (human, UniProt Q99988 197-308)", "T1 construct": "Bought from R&D Systems", "T1 sequence": "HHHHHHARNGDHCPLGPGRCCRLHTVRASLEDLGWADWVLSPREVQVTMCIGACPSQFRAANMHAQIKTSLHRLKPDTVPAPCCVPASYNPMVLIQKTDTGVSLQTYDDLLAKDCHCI", "procedure": "(§1) Rabbit anti-mouse IgGs (GE Healthcare) were immobilized on carboxymethylated dextran CM4 sensor chips (GE Healthcare) by amine coupling, according to a standard protocol. Analyses were performed at 37° C. using PBS containing 0.05% surfactant P20 as running buffer. The antibodies were captured in individual flow cells at a flow rate of 10 μL/minute. Injection time was varied for each antibody to yield an Rmax between 30 and 60 RU. 250 μg/mL mouse Fc (Jackson ImmunoResearch, West Grove, Pa.) was injected at 30 μL/minute for 120 seconds to block non-specific binding of capture antibodies to mouse Fc portion of the recombinant GDF15 protein when needed. […] The dissociation phase was monitored for up to 1500 seconds. The surface was then regenerated with two 60-second injections of 10 mM Glycine-HCl, pH 1.7, at a flow rate of 30 μL/minute.\n(§2) Kinetic parameters were determined using the kinetic function of the BIAevaluation software (GE Healthcare) with double reference subtraction."}, "[2]": {"biological_target": "T2, untagged recombinant human GDF15 (rhGDF15 (Peprotech)) (human, UniProt Q99988 197-308, limits assumed)", "T2 construct": "Bought from Peprotech", "T2 sequence (looked up)": "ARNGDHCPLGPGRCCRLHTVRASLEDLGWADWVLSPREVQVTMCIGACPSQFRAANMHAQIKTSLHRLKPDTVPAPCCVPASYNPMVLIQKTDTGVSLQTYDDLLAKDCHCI", "procedure": "as §1, §2"}, "[3]": {"biological_target": "T3, mouse IgG1 Fc-mature human GDF15 fusion protein (mFc-rhGDF15) (mouse; human)", "T3 construct": "Made in CHOK1SV cells, purified by Protein A and size exclusion; also called mouse Fc fused to human GDF15", "T3 chain": "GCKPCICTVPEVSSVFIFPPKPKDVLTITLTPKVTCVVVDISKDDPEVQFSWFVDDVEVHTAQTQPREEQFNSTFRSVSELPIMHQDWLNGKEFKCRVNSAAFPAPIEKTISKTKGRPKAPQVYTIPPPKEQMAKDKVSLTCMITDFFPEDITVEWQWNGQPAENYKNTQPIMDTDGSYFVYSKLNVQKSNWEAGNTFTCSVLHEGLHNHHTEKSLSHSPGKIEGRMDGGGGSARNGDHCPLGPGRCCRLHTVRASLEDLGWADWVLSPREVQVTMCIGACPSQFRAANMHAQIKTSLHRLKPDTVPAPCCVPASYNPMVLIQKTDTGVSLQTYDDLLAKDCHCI", "procedure": "as §1, §2"}, "cleaved-rhGDF15": {"biological_target": "T4, cleaved-rhGDF15 (human, UniProt Q99988 197-308)", "T4 sequence": "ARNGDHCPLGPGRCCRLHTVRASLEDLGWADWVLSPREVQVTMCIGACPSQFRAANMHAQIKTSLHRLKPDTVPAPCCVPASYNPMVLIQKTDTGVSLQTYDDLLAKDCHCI", "procedure": "as §1, §2"}}, "data": [{"binder": "06C11 (antibody, mouse IgG1, kappa, Murine monoclonal from hybridoma, IgG1 kappa; also called antibody 06C11) heavy: QVTLKESGPGILQPSQTLSLTCSFSGFSLNTYGMGVSWIRQPSGKGLEWLAHIYWDDDKRYNPSLKSRLTISKDASNNRVFLKITSVDTADTATYYCAQRGYDDYWGYWGQGTLVTISAAKTTPPSVYPLAPGSAAQTNSMVTLGCLVKGYFPEPVTVTWNSGSLSSGVHTFPAVLQSDLYTLSSSVTVPSSTWPSETVTCNVAHPASSTKVDKKIVPRDCGCKPCICTVPEVSSVFIFPPKPKDVLTITLTPKVTCVVVDISKDDPEVQFSWFVDDVEVHTAQTQPREEQFNSTFRSVSELPIMHQDWLNGKEFKCRVNSAAFPAPIEKTISKTKGRPKAPQVYTIPPPKEQMAKDKVSLTCMITDFFPEDITVEWQWNGQPAENYKNTQPIMDTDGSYFVYSKLNVQKSNWEAGNTFTCSVLHEGLHNHHTEKSLSHSPGK light: DIVMTQSQKFMSTSVGDRVSVTCKASQNVGTNVAWFQQKPGQSPKALIYSASYRYSGVPDRFTGSGSGTDFILTISNVQSEDLAEYFCQQYNNYPLTFGAGTKLELKRADAAPTVSIFPPSSEQLTSGGASVVCFLNNFYPKDINVKWKIDGSERQNGVLNSWTDQDSKDSTYSMSSTLTLTKDEYERHNSYTCEATHKTSTSPIVKSFNRNEC", "values": [{"measurement": "Kd", "setting": "[1]", "value": 51, "unit": "pM"}, {"measurement": "koff", "setting": "[1]", "value": 0.0015, "unit": "s⁻¹"}, {"measurement": "kon", "setting": "[1]", "value": "2.9e+07", "unit": "M⁻¹ s⁻¹"}, {"measurement": "Kd", "setting": "[2]", "value": 210, "unit": "pM"}, {"measurement": "koff", "setting": "[2]", "value": 0.0046, "unit": "s⁻¹"}, {"measurement": "kon", "setting": "[2]", "value": "2.2e+07", "unit": "M⁻¹ s⁻¹"}, {"measurement": "Kd", "setting": "[3]", "value": 170, "unit": "pM"}, {"measurement": "koff", "setting": "[3]", "value": 0.00068, "unit": "s⁻¹"}, {"measurement": "kon", "setting": "[3]", "value": "4.5e+06", "unit": "M⁻¹ s⁻¹"}, {"measurement": "Kd", "setting": "cleaved-rhGDF15", "value": 170, "unit": "pM"}, {"measurement": "koff", "setting": "cleaved-rhGDF15", "value": 0.002, "unit": "s⁻¹"}, {"measurement": "kon", "setting": "cleaved-rhGDF15", "value": "1.2e+07", "unit": "M⁻¹ s⁻¹"}]}, {"binder": "14F11 (antibody, mouse IgG1, kappa, Murine monoclonal from hybridoma, IgG1 kappa; also called antibody 14F11) heavy: QVTLKESGPGILQPSQTLSLTCSFSGFSLSTYGMGVGWIRQPSGKGLEWLADIWWDDDKYYNPSLKSRLTISKDTSSNEVFLKIAIVDTADTATYYCARRGHYSAMDYWGQGTSVTVSSAKTTPPSVYPLAPGSAAQTNSMVTLGCLVKGYFPEPVTVTWNSGSLSSGVHTFPAVLQSDLYTLSSSVTVPSSTWPSETVTCNVAHPASSTKVDKKIVPRDCGCKPCICTVPEVSSVFIFPPKPKDVLTITLTPKVTCVVVDISKDDPEVQFSWFVDDVEVHTAQTQPREEQFNSTFRSVSELPIMHQDWLNGKEFKCRVNSAAFPAPIEKTISKTKGRPKAPQVYTIPPPKEQMAKDKVSLTCMITDFFPEDITVEWQWNGQPAENYKNTQPIMDTDGSYFVYSKLNVQKSNWEAGNTFTCSVLHEGLHNHHTEKSLSHSPGK light: DIVMTQSQKFMSTSVGDRVSVTCKASQNVGTNVAWYQQKPGQSPKALIYSPSYRYSGVPDRFTGSGSGTDFTLTISNVQSEDLAEYFCQQYNSYPHTFGGGTKLEMKRADAAPTVSIFPPSSEQLTSGGASVVCFLNNFYPKDINVKWKIDGSERQNGVLNSWTDQDSKDSTYSMSSTLTLTKDEYERHNSYTCEATHKTSTSPIVKSFNRNEC", "values": [{"measurement": "Kd", "setting": "[1]", "value": 96, "unit": "pM"}, {"measurement": "koff", "setting": "[1]", "value": 0.00042, "unit": "s⁻¹"}, {"measurement": "kon", "setting": "[1]", "value": "4.4e+06", "unit": "M⁻¹ s⁻¹"}, {"measurement": "Kd", "setting": "[2]", "value": 71, "unit": "pM"}, {"measurement": "koff", "setting": "[2]", "value": 0.0022, "unit": "s⁻¹"}, {"measurement": "kon", "setting": "[2]", "value": "3.1e+07", "unit": "M⁻¹ s⁻¹"}, {"measurement": "Kd", "setting": "[3]", "value": 220, "unit": "pM"}, {"measurement": "koff", "setting": "[3]", "value": 0.00033, "unit": "s⁻¹"}, {"measurement": "kon", "setting": "[3]", "value": "1.7e+06", "unit": "M⁻¹ s⁻¹"}, {"measurement": "Kd", "setting": "cleaved-rhGDF15", "value": 110, "unit": "pM"}, {"measurement": "koff", "setting": "cleaved-rhGDF15", "value": 0.0006, "unit": "s⁻¹"}, {"measurement": "kon", "setting": "cleaved-rhGDF15", "value": "5.7e+06", "unit": "M⁻¹ s⁻¹"}]}, {"binder": "01G06 (antibody, mouse IgG1, kappa, Murine monoclonal from hybridoma, IgG1 kappa; also called antibody 01G06) heavy: EVLLQQSGPELVKPGASVKIPCKASGYTFTDYNMDWVKQSHGKSLEWIGQINPNNGGIFFNQKFKGKATLTVDKSSNTAFMEVRSLTSEDTAVYYCAREAITTVGAMDYWGQGTSVTVSSAKTTPPSVYPLAPGSAAQTNSMVTLGCLVKGYFPEPVTVTWNSGSLSSGVHTFPAVLQSDLYTLSSSVTVPSSTWPSETVTCNVAHPASSTKVDKKIVPRDCGCKPCICTVPEVSSVFIFPPKPKDVLTITLTPKVTCVVVDISKDDPEVQFSWFVDDVEVHTAQTQPREEQFNSTFRSVSELPIMHQDWLNGKEFKCRVNSAAFPAPIEKTISKTKGRPKAPQVYTIPPPKEQMAKDKVSLTCMITDFFPEDITVEWQWNGQPAENYKNTQPIMDTDGSYFVYSKLNVQKSNWEAGNTFTCSVLHEGLHNHHTEKSLSHSPGK light: DIQMTQSPASLSASVGETVTITCRTSENLHNYLAWYQQKQGKSPQLLVYDAKTLADGVPSRFSGSGSGTQYSLKINSLQPEDFGSYYCQHFWSSPYTFGGGTKLEIKRADAAPTVSIFPPSSEQLTSGGASVVCFLNNFYPKDINVKWKIDGSERQNGVLNSWTDQDSKDSTYSMSSTLTLTKDEYERHNSYTCEATHKTSTSPIVKSFNRNEC", "values": [{"measurement": "Kd", "setting": "[1]", "value": 81, "unit": "pM"}, {"measurement": "koff", "setting": "[1]", "value": 0.0011, "unit": "s⁻¹"}, {"measurement": "kon", "setting": "[1]", "value": "1.4e+07", "unit": "M⁻¹ s⁻¹"}, {"measurement": "Kd", "setting": "[2]", "value": 93, "unit": "pM"}, {"measurement": "koff", "setting": "[2]", "value": 0.0019, "unit": "s⁻¹"}, {"measurement": "kon", "setting": "[2]", "value": "2.1e+07", "unit": "M⁻¹ s⁻¹"}, {"measurement": "Kd", "setting": "[3]", "value": 210, "unit": "pM"}, {"measurement": "koff", "setting": "[3]", "value": 0.0007, "unit": "s⁻¹"}, {"measurement": "kon", "setting": "[3]", "value": "5.6e+06", "unit": "M⁻¹ s⁻¹"}, {"measurement": "Kd", "setting": "cleaved-rhGDF15", "value": 110, "unit": "pM"}, {"measurement": "koff", "setting": "cleaved-rhGDF15", "value": 0.00086, "unit": "s⁻¹"}, {"measurement": "kon", "setting": "cleaved-rhGDF15", "value": "7.5e+06", "unit": "M⁻¹ s⁻¹"}]}]}
